# According to the supplement of paper PMC9170038:
# Key:
# Settings in all cases: FMN input: 0 or 200 uM; Eterna round: R93 (includes R88 designs)
# [1] = tested on: MS2 coat protein; assay: apparent KD of MS2 coat protein, switch ON state; designed switch direction (-1 OFF switch, 1 ON switch): 1; higher = weaker reporter binding
# Outline: (§1)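 Designed RNA switches were transcribed on-chip from Illumina sequencing clusters and titrated with SNAP-549-labelled MS2 coat protein in twofold steps from 0.7 or 1.5 nM up to 3 µM. Each step lasted 0.8–1.5 h at first and 10–20 min by the end, in 100 mM Tris-HCl pH 7.5, 80 mM KCl and 4 mM MgCl2, without or with constant ligand. Apparent KD is the median, for each design, of fits to normalised cluster binding curves.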
# [2] = tested on: MS2 coat protein; assay: apparent KD of MS2 coat protein, switch OFF state (with FMN for OFF switches, without FMN for ON switches); designed switch direction (-1 OFF switch, 1 ON switch): 1; higher = weaker reporter binding
# Outline: as §1
# [3] = tested on: MS2 coat protein; assay: apparent KD of MS2 coat protein, switch ON state; designed switch direction (-1 OFF switch, 1 ON switch): -1; higher = weaker reporter binding
# Outline: as §1
# [4] = tested on: MS2 coat protein; assay: apparent KD of MS2 coat protein, switch OFF state (with FMN for OFF switches, without FMN for ON switches); designed switch direction (-1 OFF switch, 1 ON switch): -1; higher = weaker reporter binding
# Outline: as §1
Sequence,apparent KD of MS2 coat protein [1],apparent KD of MS2 coat protein [2],apparent KD of MS2 coat protein [3],apparent KD of MS2 coat protein [4]
AAAAAAAAAGUAGAGGAUAUCCAAAUGGCUACAUGAGGAUCACCCAUGUGAAGAAAAGCACAUGAGGAGAAGGCUACAAAAAAAAA [Blender bender],12.1 nM,21.7 nM,–,–
AAAAAAAAAUCACAGGAUAUACGAAAAAAAACAUGAGGAUCACCCAUGUGAAAAAAAAAAAAAAAGUAGAAGGGUGAUCCAAAAAA,12.6 nM,8.77 nM,–,–
AAAAAACAAAGAGAGGAUAUCCUAAAAAAAACAUGAGGAUCACCCAUGUAAAGAAAUUUAAAAUGGGAGAAGGCUCUUUGAAAAA [Same State 2.6d ( Helter Skelter 1)],12.4 nM,23.2 nM,–,–
AAAAAACAUGAGGAUCACCCAUGUAAAAAAAACACAGGAUAUCCCUUUUUAAAAAAAAAAGGAGAAGGGUGAAAAA [Nob's Hobby 6 - Jieux - Same State 1],29.8 nM,28 nM,–,–
AAAAAACAUGAGGAUCACCCAUGUAACACUCAUGUAGGAUAUACAAAAAAAAAAAAAAAAGUAGAAGGACAAAAAA [Omei A variation 3],143 nM,293 nM,–,–
AAAAAACAUGAGGAUCACCCAUGUAAUACAACGUCAGGAUAUUGAUUUUAUUAUGUAUUGCAAGAAGGGACAAAAA [Same State 1.3 (Same State 1 - Omei 2 - one GC added)],161 nM,144 nM,–,–
"AAAAAACAUGAGGAUCACCCAUGUAUAAAAAUGGGAGGAUAUACUAAGACGAAAGUCAUAGUAGAAGGUCUAAAAA [76%, Meechl, 11]",137 nM,241 nM,–,–
AAAAAACAUGAGGAUCACCCAUGUCAAAAGACAUGAGGAUAUGUACAGACUUCGGUCUGUACAGAAGGCAUGAAAA [SS1 - 1011],31.6 nM,524 nM,–,–
AAAAAACAUGAGGAUCACCCAUGUCAAAAGACGUGAGGAUAUGUACAGACUUCGGUCUGUACAGAAGGCACGUCAA [SS1 - 1043],15.9 nM,20.4 nM,–,–
AAAAAACAUGAGGAUCACCCAUGUCCAAAAAAAAAAGGAUAUGCAAAAAAAAAAAAAAAAGCAGAAGGUUUAAAAA [Same State 1],41.2 nM,45.1 nM,–,–
AAAAAACAUGAGGAUCACCCAUGUCCUCGGACGUGAGGAUAUGUACAGACUUCGGUCUGUACAGAAGGCACAAAAA [SS1 - 1034],1240 nM,333 nM,–,–
AAAAAACAUGAGGAUCACCCAUGUCUUCGGACAUGAGGAUAUGUACAGACUUCGGUCUGUACAGAAGGCAUGAAAA [SS1 - 1013],256 nM,39.5 nM,–,–
AAAAAACAUGAGGAUCACCCAUGUGAAAAUAUGGGAGGAUAUCAUGGAAAAAAAAAAACAUGAGAAGGCCCAGAAA [SS! 1 MT 11],13.7 nM,67.1 nM,–,–
AAAAAACAUGAGGAUCACCCAUGUGACAACAUGGGAGGAUAUACGAAGACGAGAGUCGAAGUAGAAGGCCUAAAAG [Garnet 78],117 nM,65.3 nM,–,–
AAAAAACAUGAGGAUCACCCAUGUGAGAACAUGGGAGGAUAUACAAGGACGAGAGUCAAGGUAGAAGGCCUAAAGA [Mat - Same State 1 - Mod - D193],545 nM,21.1 nM,–,–
AAAAAACAUGAGGAUCACCCAUGUGAGAACAUGGGAGGAUAUACGAGGACGAGAGUCAGAGUAGAAGGCCUAAAAA [Garnet 66],161 nM,51.7 nM,–,–
GAAAAGCAAGGAUAUACAUGAGGAUCACCCAUGUGGAAUGGCGUGACCUAAAGAAAAGGUAGAAGGUGCACGUG [Soangebi],–,–,166 nM,341 nM
GAAAAGUCAGGAUAUGCGAAGGCGUCUGAUAGACGAGGCUAGCAGAAGGGACAUGAGGAUCACCCAUGUGGAAG [Mat - Exclusion 4 - Eli mod - D90],–,–,76.5 nM,157 nM
GAAAAGUGAGGAUAUACUUUGGGAAAAGAAAAGAUGAUGUUACAUGAGGAUCACCCAUGUAGAAGGCACAAAAA [Mat - Exclusion 2 - Mod - D155],–,–,25.2 nM,38.1 nM
GAAAAGUGAGGAUAUUCGGAUAGGAAAACGAAAACCUAUCCGAAGAAGGCACAUGAGGAUCACCCAUGUAAAAG [Mat - Exaclusion 4 - Eli mod - D36],–,–,41.2 nM,51.9 nM
GAAAGUGGAGGAUAUACAUGAGGAUCACCCAUGUGUAAAAAUAAAAACACAAAAGAAAGUAGAAGGCCACAAAG [Mat - Exclusion 3 - Mayanna mod - D116],–,–,22.9 nM,49.2 nM
GAGAGACAUGAGGAUCACCCAUGUGAGGAUAUCGGGAGGAGGAGGAGGAGGAGGAGGACGAGAAGGCACGGAAG [salish99-Ex1-06],–,–,21.6 nM,35.3 nM

Sequence,apparent KD of MS2 coat protein [1],apparent KD of MS2 coat protein [2],apparent KD of MS2 coat protein [3],apparent KD of MS2 coat protein [4]
GAGGCUGAAGGAUAUACAAGGGCCUCACCGCCAAGGCGGAAACAUGAGGAUCACCCAUGUAGAAGGUCAAUAAA [Usrisore],–,–,140 nM,103 nM
GCUGGCCUAGGAUAUACAUGAGGAUCACCCAUGUGAGAGAAAAAAGUGAGAAAGAAAAGUAGAAGGAGGUUAGG [salish99-ex3-115],–,–,50.2 nM,57.2 nM
GGAAAACAUGAGGAUCACCCAUGUGAGGAUAUUGAAACAAACAAAACAAACAAACAAACAAGAAGGCACAGGAA [Exclusion one redone],–,–,20.7 nM,20.1 nM
GGAGGGCAAGGAUAUACAUGAGGAUCACCCAUGUGAGAGAAAAAAGUGAGAAAGAAAAGUAGAAGGUGCUUUCG [salish99-ex3-130],–,–,38.8 nM,47.8 nM
GGAUGCGUAGGAUAUACAUGAGGAUCACCCAUGUGAGAGAAAAAAGUGAGAAAGAAAAGUAGAAGGACGUGUCG [salish99-ex3-90],–,–,34.9 nM,85.6 nM
GGAUGGGAAGGAUAUACAUGAGGAUCACCCAUGUGAGAGAAAAAAGUGAGAAAGAAAAGUAGAAGGUCUUGUCG [salish99-ex3-85],–,–,82.5 nM,99.1 nM
GGUUGCGUAGGAUAUACAUGAGGAUCACCCAUGUGAGAGAAAAAAGUGAGAAAGAAAAGUAGAAGGACGUGACG [salish99-ex3-125],–,–,29.7 nM,57.9 nM
GGUUGGCGAGGAUAUACAUGAGGAUCACCCAUGUGAGAGAAAAAAGUGAGAACGAAAAGUAGAAGGCGCUGACG [salish99-ex3-25],–,–,23.5 nM,1340 nM
GGUUGGCGAGGAUAUACAUGAGGAUCACCCAUGUGAGAGAAAAAAGUGAGGAGGAGCAGUAGAAGGCGCUGACG [salish99-ex3-19],–,–,59.3 nM,147 nM
GUCGUGUGAGGAUAUGGAAAGAAGAAGAAAAGGUAGAAAAACUAGAAGGCACAUGAGGAUCACCCAUGUAAGAA [JR_Exc004_Sub1709],–,–,24.1 nM,22.3 nM
GUGUACAGAGGAUAUACAUGGGCAUGGAAACAUGCAUCCUCACAUGAGGAUCACCCAUGUAGAAGGCUGUACAC [Ex2: 708],–,–,21.6 nM,20.9 nM
GUGUACAGAGGAUAUAUAUGAGCUAGGAAACUAGCAACUUCACAUGAGGAUCACCCAUGUAGAAGGCUGUACAC [Ex2: 720],–,–,14.1 nM,14.3 nM
UAGAACCUAGGAUAUACUUGGAAAAAUAAUGCAAAGAUAUAACAUGAGGAUCACCCAUGUAGAAGGAGGAGUAA [JR_Exc002_Sub020],–,–,48.5 nM,35.9 nM
UCUUGACAUGAGGAUCACCCAUGUCAGGAUAUAGUAGGACAAAUAAAUAAAAGUAAUACUAGAAGGGAUAUGGG [Amethyst 52],–,–,29.8 nM,32.6 nM
UGCAGGUGAGGAUAUGCGGGCGAGCUAACAUAAGCAUCGAAGCAGAAGGCACAUGAGGAUCACCCAUGUAGUCC [Ex4_Neo],–,–,21 nM,27.2 nM
UGCAGGUGAGGAUAUGCGGGCGAUUAAACAUAUAAAUGCAAGCAGAAGGCACAUGAGGAUCACCCAUGUAGUCC [Ex4Try2_Neo],–,–,30.8 nM,29.6 nM
UGCUAGUCAGGAUAUACGAACAUGUCAAAAGACGUGAAGGGACAUGAGGAUCACCCAUGUAGAAGGGACUAGCA [salish99-Ex2-18],–,–,37.5 nM,121 nM
UGUUGGCGAGGAUAUACAUGAGGAUCACCCAUGUGAGAGAAAAAAGUGAGAAAGAAAAGUAGAAGGCGCUGACU [salish99-ex3-08],–,–,42.7 nM,211 nM
UUAAAACAUGAGGAUCACCCAUGUGAGGAUAUGCAAUACUAAUAUUAAAAUAAUUAUAGCAGAAGGCACAUAGU [JR_EXc001_Sub802],–,–,28.4 nM,60.4 nM
UUUAUGUGAGGAUAUGUACAGAAAAAAAAGGGUGUAACUGUACAGAAGGCACAUGAGGAUCACCCAUGUGCAUU [EX4 382: S S Pseudoknot 7],–,–,27.9 nM,21.8 nM
UUUCACCUAGGAUAUACAUGAGGAUCACCCAUGUGAGGCGAAGGACGGAGGGAUGGUAGUAGAAGGAGGACAAG [Mod of Gedier],–,–,19.5 nM,21.6 nM
